From patent publication US20250368752A1 (AMPSOURCE BIOPHARMA SHANGHAI, published 2025)
Blank lines part the entries; values can stand above or below the binder they belong to.

Key:
[1] = target: TFPI expressed on HUVECs (human) (UniProt P10646); assay: cell-based or functional assay
[2] = target: TFPI expressed on HUVECs (human) (UniProt P10646); assay: flow cytometry on HUVEC cells, AF647 goat anti-human IgG detection
human TFPI protein = target: T1, human TFPI protein (human, UniProt P10646 29-282, limits assumed); assay: ELISA, human TFPI coated at 0.1 ug/mL, HRP goat anti-human IgG detection
T1 construct: Soluble human TFPI, coated on ELISA plates (6.1) and used in solution in the FXa and TF/FVIIa/FX assays (6.2, 6.3)
T1 sequence (looked up): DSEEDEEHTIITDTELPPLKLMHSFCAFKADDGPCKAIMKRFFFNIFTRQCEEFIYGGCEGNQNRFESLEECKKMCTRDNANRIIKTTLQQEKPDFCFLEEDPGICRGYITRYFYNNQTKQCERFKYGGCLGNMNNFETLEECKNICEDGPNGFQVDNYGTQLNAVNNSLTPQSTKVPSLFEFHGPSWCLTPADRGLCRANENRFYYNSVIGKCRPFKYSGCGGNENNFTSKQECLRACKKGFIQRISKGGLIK
Protocol: Human TFPI was coated onto the ELISA plate at a concentration of 0.1 μg/mL, with 100 μL per well, and incubated overnight at 4° C. The coating solution was then discarded, and the wells were blocked with 200 μL of PBS solution containing 1% BSA (PBSB) per well at 37° C. for 1 hour. The plate was washed with PBS solution containing 0.05% Tween-20 (PBST). A series of diluted concentrations of AB8D were added, with 100 μL per well, and incubated for 1 hour at 37° C. The plates were washed with PBST, and then HRP-labeled goat anti-human IgG (H+L) (Jackson Laboratory) was added as the detection antibody, with incubation for 1 hour at 37° C. After washing three times with 0.05% PBST, TMB was added, with 100 μL per well, and the color was developed at room temperature for 5 minutes. The reaction was terminated by adding 0.2 M H₂SO₄, with 50 μL per well. The absorbance values were read at dual wavelengths of 450/620 nm using a microplate reader. Using OD450 nm-OD620 nm as the Y-axis and antibody concentration as the X-axis, the data were analyzed using GraphPad Prism 6 software with a four-parameter logistic curve fitting to calculate the EC₅₀ value.

[3] = target: T2, human TFPI with a His tag (human, UniProt P10646 29-282, limits assumed); assay: BLI (ForteBio Octet), His-tagged human TFPI on Ni-NTA sensors, antibody 3.125-100 nM
T2 construct: Coupled to Ni-NTA sensors at 10 ug/mL for BLI; not shown: His tag
T2 sequence (looked up): T1 sequence (looked up)
Protocol: The binding affinity constant of the purified mouse monoclonal antibody against human TFPI (mAb3-71) to human TFPI was determined using biolayer interferometry (BLI) with the ForteBio Octet RED&QK system from PALL Corporation. The concentration gradient for multi-channel parallel quantitative analysis was set to 3.125, 6.25, 12.5, 25, 50, and 100 nM, and human TFPI with a His tag at 10 μg/mL was coupled to Ni-NTA sensors.

- neutralization of TFPI on HUVEC cells (FVIIa/FX added, S-2765, OD405 nm) [1]: 117 ng/mL
- EC50 [2]: 0.0286 µg/mL
- EC50 (human TFPI protein): 0.00165 µg/mL
B1: humanized anti-human TFPI antibody AB8D (antibody, V domains shown)
VH: EVQLVQSGAELKKPGASVKLSCKASGYTFTSYWMHWVRQTPGQGLEWIGEIKPDQGRINYNEKFKTRATLTADKSTSTAYMELSSLRSEDTAVYYCARSSVVDVAMDYWGQGTTVTVSS
VL: EIVLTQSPATLSLSPGERATLSCSASSSVSSSYLYWYQQKPGQAPRLWISGTSILASGVPARFSGSGSGTKYTLTISSLEPEDFAVYFCHQWSHYPFTFGQGTKLEIK
notes: Full-length humanized IgG of about 145 kD, expressed in CHO cells

- Kd [3]: 4.54 pM
- koff [3]: 1.31e-06 s⁻¹
- kon [3]: 289000 M⁻¹ s⁻¹
B2: mouse monoclonal antibody against human TFPI, mAb3-71 (antibody, V domains shown)
VH: QVQLQQPEAELMKPGASVKLSCKASGYTFTSYWMHWVKQRPGQGLEWIGEIKPDNGRINYNEKFKTKATLAVDKSSSTAYMQLNSLTSGDSAVYYCARSSVVDVAMDYWGQGTSVSVSS
VL: QIVLTQSPAIMSASPGEKVTLTCSASSSVSSSYLYWYQQKPGSSPKLWISGTSILASGVPARFSGSGSGTSYSLTISSMEAEDTASYFCHQWSHYPFTFGSGTKLEIK
notes: also called hybridoma cell line #3-71
